{
  "source": "paper PMC7228087",
  "about": "“Atco, a yeast mitochondrial complex of Atp9 and Cox6, is an assembly intermediate of the ATP synthase” (PLoS ONE, 2020)",
  "molecular_target": "T1, Cox6 with a tandem hemagglutinin plus protein C tag (S. cerevisiae, UniProt P00427 41-148)",
  "T1 construct": "Cox6, nuclear-encoded imported structural subunit of cytochrome oxidase, S. cerevisiae; also called Cox6-HAC; COX6-HAC; source: expressed in S. cerevisiae (cox6::URA3 trp1::pG71/ST9), in digitonin extract of mitochondria",
  "T1 sequence (looked up)": "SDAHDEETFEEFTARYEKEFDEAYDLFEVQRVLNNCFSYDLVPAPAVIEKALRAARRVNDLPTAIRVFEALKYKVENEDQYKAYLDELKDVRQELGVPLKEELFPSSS",
  "assay": "co-IP; as a1 but from an oxa1 null mutant expressing Cox6-HAC; radiolabel quantified as ratio to the OXA1 strain",
  "settings": "partners not purified",
  "data": [
    {"binder": "Atp9 (natural protein, UniProt P61829 1-76, looked up, Atp9, mitochondrially encoded subunit of the ATP synthase ring, S. cerevisiae; wild type with native cysteine at residue 65; The introduction says that the ring of the ATP synthase has 10 copies of Atp9; In Atco the protein is oligomeric but not a ring; also called A9; Atp9 ring; source: submitochondrial particles for Western blots) MQLVLAAKYIGAGISTIGLLGAGIGIAIVFAALINGVSRNPSIKDTVFPMAILGFALSEATGLFCLMVSFLLLFGV", "values": [
      {"measurement": "ratio (Δoxa1/OXA1) of radiolabel in the PC eluate, SDS-PAGE", "value": 0.124, "unit": "ratio"}
    ]}
  ]
}
